B1: TrfB transcriptional repressor protein (Escherichia coli), P03052 (parent)
chain: MKKRLTESQFQEAIQGLEVGQQTIEIARGVLVDGKPQATFATSLGLTRGAVSQAVHRVWAAFEDKNLPEGYARVTAVLPEHQAYIVRKWEADAKKKQETKR

Variants of: B1
Details: with korb2_ecolx korB
With MKKRLTESQFQEAIQGLEVGQQTIEIARGVLVDGKPQATFATSLGLTRGAVSQAVHRVWAAFEDKNLPEGYARATAVLPEHQAYIVRKWEADAKKKQETKR [V74A] the “effect of a mutation on the interaction” value was “disrupting interaction strength”.
MKKRLTESQFQEAIQGLEVGQQTIEIARGVLVDGKPQATFATSLGLTRGAVSQAVHRVWAAFEDKNLPEGYARVTAVLPEHQAAIVRKWEADAKKKQETKR [Y84A] was tested, and the “effect of a mutation on the interaction” value was “disrupting interaction strength”.
With MKKRLTESQFQEAIQGLEVGQQTIEIARGVLVDGKPQATFATSLGLTRGAVSQAVHRVWAAFEDKNLPEGYARVTAVAPEHQAYIVRKWEADAKKKQETKR [L78A] the “effect of a mutation on the interaction” value was “disrupting interaction strength”.
With MKKRLTESQFQEAIQGLEVGQQTIEIARGVLVDGKPQATFATSLGLTRGAVSQAVHRVWAAFEDKNLPEGYARVTAVLPEHAAYIVRKWEADAKKKQETKR [Q82A] the “effect of a mutation on the interaction” value was “decreasing interaction strength”.
MKKRLTESQFQEAIQGLEVGQQTIEIARGVLVDGKPQATFATSLGLTRGAVSQAVHRVWAAFEDKNLAEGYARVTAVLPEHQAYIVRKWEADAKKKQETKR [P68A] was tested, and the “effect of a mutation on the interaction” value was “decreasing interaction strength”.
